Data: the Human Domainome abundance scans (Beltran et al. 2025)
± gives the uncertainty stated by the source.

B1: Intersectin-2, residues 1129 to 1183; numbered along this chain, Q9NZM3 (parent)
chain: VCQVIAMYDYAANNEDELSFSKGQLINVMNKDDPDWWQGEINGVTGLFPSNYVKM

Variants of: B1
Assay: abundance fitness (aPCA) (normalised: wild type 0, dead -1); higher = more abundant; growth selection in yeast, the domain comes from the species named
Details: Homo sapiens
In the case of VCQVIAMYDYAANNEDELSFSKGQLINVMNKDDPDWWQGEIAGVTGLFPSNYVKM [N42A], the abundance fitness is reported as -0.013 ± 0.049. In the case of VCQVIAMYDYAANNEDELSFSKGQLINVMNKDDPDWWQGEIIGVTGLFPSNYVKM [N42I], the abundance fitness is reported as -0.196 ± 0.062. Variant VCQVIAMYDYAANNEDELSFSKGQLINVMNKDDPDWWQGEIMGVTGLFPSNYVKM [N42M] has an abundance fitness of -0.046 ± 0.045. VCQVIAMYDYAANNEDELSFSKGQLINVMNKDDPDWWQGEIWGVTGLFPSNYVKM [N42W] showed an abundance fitness of -0.148 ± 0.044. In the case of VCQVIAMYDYAANNEDELSFSKGQLINVMNKDDPDWWQGEIQGVTGLFPSNYVKM [N42Q], the abundance fitness is reported as -0.084 ± 0.05. Work on VCQVIAMYDYAANNEDELSFSKGQLINVMNKDDPDWWQGEIEGVTGLFPSNYVKM [N42E] yielded an abundance fitness of 0 ± 0.042. Work on VCQVIAMYDYAANNEDELSFSKGQLINVMNKDDPDWWQGEIPGVTGLFPSNYVKM [N42P] yielded an abundance fitness of -0.473 ± 0.038. VCQVIAMYDYAANNEDELSFSKGQLINVMNKDDPDWWQGEIGGVTGLFPSNYVKM [N42G] gave an abundance fitness of -0.042 ± 0.034. For VCQVIAMYDYAANNEDELSFSKGQLINVMNKDDPDWWQGEIRGVTGLFPSNYVKM [N42R], the abundance fitness was -0.054 ± 0.036. VCQVIAMYDYAANNEDELSFSKGQLINVMNKDDPDWWQGEIFGVTGLFPSNYVKM [N42F] showed an abundance fitness of -0.126 ± 0.055. With VCQVIAMYDYAANNEDELSFSKGQLINVMNKDDPDWWQGEIVGVTGLFPSNYVKM [N42V] the abundance fitness was -0.1 ± 0.039. With VCQVIAMYDYAANNEDELSFSKGQLINVMNKDDPDWWQGEITGVTGLFPSNYVKM [N42T] the abundance fitness was -0.01 ± 0.051. Work on VCQVIAMYDYAANNEDELSFSKGQLINVMNKDDPDWWQGEIHGVTGLFPSNYVKM [N42H] yielded an abundance fitness of 0 ± 0.041. Work on VCQVIAMYDYAANNEDELSFSKGQLINVMNKDDPDWWQGEIYGVTGLFPSNYVKM [N42Y] yielded an abundance fitness of -0.082 ± 0.032. Variant VCQVIAMYDYAANNEDELSFSKGQLINVMNKDDPDWWQGEIKGVTGLFPSNYVKM [N42K] has an abundance fitness of -0.093 ± 0.054. With VCQVIAMYDYAANNEDELSFSKGQLINVMNKDDPDWWQGEISGVTGLFPSNYVKM [N42S] the abundance fitness was -0.021 ± 0.031. VCQVIAMYDYAANNEDELSFSKGQLINVMNKDDPDWWQGEICGVTGLFPSNYVKM [N42C] showed an abundance fitness of 0.014 ± 0.064. For VCQVIAMYDYAANNEDELSFSKGQLINVMNKDDPDWWQGEILGVTGLFPSNYVKM [N42L], the abundance fitness was -0.068 ± 0.037. Work on VCQVIAMYDYAANNEDELSFSKGQLINVMNKDDPDWWQGEIDGVTGLFPSNYVKM [N42D] yielded an abundance fitness of -0.16 ± 0.063. With VCQVIAMYDYAANNEDELSFSKGQLINVMNKDDPDWWQGEINGVTGCFPSNYVKM [L47C] the abundance fitness was -0.185 ± 0.057. With VCQVIAMYDYAANNEDELSFSKGQLINVMNKDDPDWWQGEINGVTGAFPSNYVKM [L47A] the abundance fitness was -0.007 ± 0.031. For VCQVIAMYDYAANNEDELSFSKGQLINVMNKDDPDWWQGEVNGVTGLFPSNYVKM [I41V], the abundance fitness was -0.055 ± 0.042. Variant VCQVIAMYDYAANNEDELSFSKGQLINVMNKDDPDWWQGERNGVTGLFPSNYVKM [I41R] has an abundance fitness of -0.028 ± 0.031. VCQVIAMYDYAANNEDELSFSKGQLINVMNKDDPDWWQGETNGVTGLFPSNYVKM [I41T] showed an abundance fitness of -0.017 ± 0.049. Work on VCQVIAMYDYAANNEDELSFSKGQLINVMNKDDPDWWQGEQNGVTGLFPSNYVKM [I41Q] yielded an abundance fitness of -0.085 ± 0.06. With VCQVIAMYDYAANNEDELSFSKGQLINVMNKDDPDWWQGESNGVTGLFPSNYVKM [I41S] the abundance fitness was -0.038 ± 0.04. VCQVIAMYDYAANNEDELSFSKGQLINVMNKDDPDWWQGEINYVTGLFPSNYVKM [G43Y] gave an abundance fitness of -0.237 ± 0.068. With VCQVIAMYDYAANNEDELSFSKGQLINVMNKDDPDWWQGEINTVTGLFPSNYVKM [G43T] the abundance fitness was -0.128 ± 0.044. Variant VCQVIAMYDYAANNEDELSFSKGQLINVMNKDDPDWWQGEINIVTGLFPSNYVKM [G43I] has an abundance fitness of -0.865 ± 0.1. In the case of VCQVIAMYDYAANNEDELSFSKGQLINVMNKDDPDWWQGEINRVTGLFPSNYVKM [G43R], the abundance fitness is reported as -0.069 ± 0.036. In the case of VCQVIAMYDYAANNEDELSFSKGQLINVMNKDDPDWWQGEINEVTGLFPSNYVKM [G43E], the abundance fitness is reported as -0.032 ± 0.037. Variant VCQVIAMYDYAANNEDELSFSKGQLINVMNKDDPDWWQGEINAVTGLFPSNYVKM [G43A] has an abundance fitness of -0.044 ± 0.03. In the case of VCQVIAMYDYAANNEDELSFSKGQLINVMNKDDPDWWQGEINLVTGLFPSNYVKM [G43L], the abundance fitness is reported as -0.175 ± 0.034. Variant VCQVIAMYDYAANNEDELSFSKGQLINVMNKDDPDWWQGEINWVTGLFPSNYVKM [G43W] has an abundance fitness of -0.404 ± 0.067. In the case of VCQVIAMYDYAANNEDELSFSKGQLINVMNKDDPDWWQGEINSVTGLFPSNYVKM [G43S], the abundance fitness is reported as -0.024 ± 0.033. VCQVIAMYDYAANNEDELSFSKGQLINVMNKDDPDWWQGEINQVTGLFPSNYVKM [G43Q] showed an abundance fitness of -0.202 ± 0.067. With VCQVIAMYDYAANNEDELSFSKGQLINVMNKDDPDWWQGEINVVTGLFPSNYVKM [G43V] the abundance fitness was -0.765 ± 0.045. For VCQVIAMYDYAANNEDELSFSKGQLINVMNKDDPDWWQGEINPVTGLFPSNYVKM [G43P], the abundance fitness was -0.908 ± 0.075. In the case of VCQVIAMYDYAANNEDELSFSKGQLINVMNKDDPDWWQGEINMVTGLFPSNYVKM [G43M], the abundance fitness is reported as -0.08 ± 0.041. Work on VCQVIAMYDYAANNEDELSFSKGQLINVMNKDDPDWWQGEINHVTGLFPSNYVKM [G43H] yielded an abundance fitness of -0.025 ± 0.058. In the case of VCQVIAMYDYAANNEDELSFSKGQLINVMNKDDPDWWQGEINDVTGLFPSNYVKM [G43D], the abundance fitness is reported as -0.044 ± 0.045. In the case of VCQVIAMYDYAANNEDELSFSKGQLINVMNKDDPDWWQGEINKVTGLFPSNYVKM [G43K], the abundance fitness is reported as 0.029 ± 0.04. Work on VCQVIAMYDYAANNEDELSFSKGQLINVMNKDDPDWWQGEINGVCGLFPSNYVKM [T45C] yielded an abundance fitness of -0.087 ± 0.056. VCQVIAMYDYAANNEDELSFSKGQLINVMNKDDPDWWQGEINGVWGLFPSNYVKM [T45W] gave an abundance fitness of -0.153 ± 0.07. VCQVIAMYDYAANNEDELSFSKGQLINVMNKDDPDWWQGEINGVFGLFPSNYVKM [T45F] gave an abundance fitness of -0.051 ± 0.071. In the case of VCQVIAMYDYAANNEDELSFSKGQLINVMNKDDPDWWQGEINGVRGLFPSNYVKM [T45R], the abundance fitness is reported as -0.076 ± 0.044. VCQVIAMYDYAANNEDELSFSKGQLINVMNKDDPDWWQGEINGVIGLFPSNYVKM [T45I] showed an abundance fitness of -0.103 ± 0.045. Variant VCQVIAMYDYAANNEDELSFSKGQLINVMNKDDPDWWQGEINGVQGLFPSNYVKM [T45Q] has an abundance fitness of -0.024 ± 0.064.
